In patent US20250235548A1, “ANTIBODY-DRUG CONJUGATES TARGETING NAPI2B AND METHODS OF USE” (Zymeworks BC Inc., priority 2022, published 2025):

Experiments:
[1] = target: human sodium-dependent phosphate transporter 2B (NaPi2b) (human) (UniProt O95436); assay: flow cytometry competition, HEK293-6e cells expressing human NaPi2b; row antibody unlabeled at 100 ug/mL (the reference of the calculation); competitor: AF647-labeled v16955 (negative control) at 1 ug/mL
[2] = target: human sodium-dependent phosphate transporter 2B (NaPi2b) (human) (UniProt O95436); assay: flow cytometry competition, HEK293-6e cells expressing human NaPi2b; row antibody unlabeled at 100 ug/mL (the reference of the calculation); competitor: AF647-labeled v18992 (MX35) at 1 ug/mL
[3] = target: human sodium-dependent phosphate transporter 2B (NaPi2b) (human) (UniProt O95436); assay: flow cytometry competition, HEK293-6e cells expressing human NaPi2b; row antibody unlabeled at 100 ug/mL (the reference of the calculation); competitor: AF647-labeled v23855 at 1 ug/mL
[4] = target: human sodium-dependent phosphate transporter 2B (NaPi2b) (human) (UniProt O95436); assay: flow cytometry competition, HEK293-6e cells expressing human NaPi2b; row antibody unlabeled at 100 ug/mL (the reference of the calculation); competitor: AF647-labeled v18993 (lifastuzumab) at 1 ug/mL
[5] = target: Fcγ receptor (FcγR) on the surface of immune effector cells; assay: cell-based or functional assay

Chain of human sodium-dependent phosphate transporter 2B (NaPi2b) (human) (O95436 whole entry): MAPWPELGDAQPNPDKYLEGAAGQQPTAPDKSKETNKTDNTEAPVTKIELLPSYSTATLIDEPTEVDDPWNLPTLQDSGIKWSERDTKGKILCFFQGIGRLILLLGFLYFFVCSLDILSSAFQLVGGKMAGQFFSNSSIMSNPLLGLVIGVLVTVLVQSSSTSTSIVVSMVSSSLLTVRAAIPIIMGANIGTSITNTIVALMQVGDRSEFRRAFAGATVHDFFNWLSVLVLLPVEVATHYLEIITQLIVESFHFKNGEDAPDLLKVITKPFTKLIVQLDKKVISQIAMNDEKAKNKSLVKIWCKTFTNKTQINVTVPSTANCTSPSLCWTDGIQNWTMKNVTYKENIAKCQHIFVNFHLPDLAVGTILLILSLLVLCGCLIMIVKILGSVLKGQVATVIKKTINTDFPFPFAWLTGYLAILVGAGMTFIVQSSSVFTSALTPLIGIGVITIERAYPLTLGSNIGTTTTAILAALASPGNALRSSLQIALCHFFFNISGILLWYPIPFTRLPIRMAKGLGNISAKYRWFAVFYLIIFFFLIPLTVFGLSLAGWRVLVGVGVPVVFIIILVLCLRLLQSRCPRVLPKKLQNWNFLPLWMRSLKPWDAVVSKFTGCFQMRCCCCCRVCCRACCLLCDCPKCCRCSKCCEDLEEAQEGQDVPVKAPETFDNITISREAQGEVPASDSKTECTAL

Row | Substance | % Inhibition vs. irrelevant mAb [1] | % Inhibition vs. irrelevant mAb [2] | % Inhibition vs. irrelevant mAb [3] | % Inhibition vs. irrelevant mAb [4] | % ADCC at 0.0192 nM (25 PBMCs:1 IGROV-1) [5] | % ADCC at 0.48 nM (25 PBMCs:1 IGROV-1) [5] | % ADCC at 12 nM (25 PBMCs:1 IGROV-1) [5]
1 | v16955 (Palivizumab), anti-RSV negative control antibody | 0% | 0% | 0% | 0% | – | – | –
2 | v18993 (lifastuzumab) (antibody) | – | – | – | – | 5.96% | 14% | 14.4%
